# Source: patent US20230045262A1 (Hoffmann-La Roche, published 2023)
# Read-outs that look alike come from different tables or passages of the source.
# Tests used:
# [1] = molecular target: T1, human 4-1BB on cells (activated human T cells; HeLa-hu4-1BB-NFκB-luc clone 26; Jurkat-hu4-1BB-NFκB-luc2) (human, UniProt Q07011 24-255); assay: cell-based or functional assay
# [2] = molecular target: T2, hu4-1BB-SNAP fusion on Hek293 EBNA cells (human, UniProt Q07011 24-255, labeled with the FRET donor Terbium); assay: TagLite FRET competition on hu4-1BB-SNAP cells; competitor 0.6 nM d2-labelled 20H4.9 IgG; 4 h
# T2 construct: also called hu 4-1BB (TagLite); not shown: SNAP tag
# [3] = molecular target: T2, hu4-1BB-SNAP fusion on Hek293 EBNA cells; assay: as above; remark: listed apart in the source
# [4] = molecular target: T1, human 4-1BB on cells (activated human T …); assay: cell-based or functional assay; remark: listed apart in the source
# [5] = molecular target: T3, human FAP on cells (WM-266-4; NIH/3T3-huFAP clone 19) (human, UniProt Q12884 1-760); assay: flow cytometry on WM-266-4 and NIH/3T3-huFAP clone 19 cells
# T3 construct: transfected in NIH/3T3-huFAP clone 19
# [6] = molecular target: T1, human 4-1BB on cells (activated human T …); assay: flow cytometry on activated human CD8+ T cells, PE anti-human Fc secondary
# [7] = molecular target: T1, human 4-1BB on cells (activated human T …); assay: cell-based or functional assay; remark: listed apart in the source
# [8] = molecular target: T1, human 4-1BB on cells (activated human T …); assay: flow cytometry on activated human CD4+ T cells, PE anti-human Fc secondary
binder,measurement,setting,value
"4-1BB (20H4.9) huIgG1 P329G LALA (antibody, V domains shown, rest is human IgG1 with P329G, L234A, L235A; In the FRET assay the same IgG, labelled with d2, is the tracer; also called 20H4.9 IgG; anti-4-1BB (20H4.9) huIgG1 P329G LALA) VH: QVQLQQWGAGLLKPSETLSLTCAVYGGSFSGYYWSWIRQSPEKGLEWIGEINHGGYVTYNPSLESRVTISVDTSKNQFSLKLSSVTAADTAVYYCARDYGPGNYDWYFDLWGRGTLVTVSS VL: EIVLTQSPATLSLSPGERATLSCRASQSVSSYLAWYQQKPGQAPRLLIYDASNRATGIPARFSGSGSGTDFTLTISSLEPEDFAVYYCQQRSNWPPALTFGGGTKVEIK",EC50 of Jurkat-hu4-1BB-NFκB-luc2 reporter cell line activation curves in the presence of CEA-expressing MKN45 tumor cells,[1],0.02 nM
same,EC50,[2],1.5 nM
same,EC50 interval,[2],0.9 to 2.4 nM
same,EC50,[3],1.5 nM
same,EC50 interval,[3],0.9 to 2.5 nM
same,"EC50 of activation of the NFκB signaling pathway (luciferase, HeLa-hu4-1BB-NFκB-luc), no FAP+ cells",[4],1.07 nM
same,"EC50 of activation of the NFκB signaling pathway (luciferase, HeLa-hu4-1BB-NFκB-luc), with 3T3-huFAP cells",[4],2.17 nM
same,"EC50 of activation of the NFκB signaling pathway (luciferase, HeLa-hu4-1BB-NFκB-luc), with WM-266-4 cells",[4],0.64 nM
same,binding result,[5],no binding
same,EC50,[6],0.1 nM
same,"EC50 of human PBMC activation curves, % CD25+ CD4 (with NIH/3T3-huFAP cells and anti-CD3)",[7],0.1 nM
same,EC50,[8],0.1 nM
